Laboratory results from article PMC7057950 (Nature Communications, 2020).

B1: human Hsp90β K607A (natural protein)
chain: not shown
notes: Hsp90β, human; pET28 vector, site-directed mutagenesis; source: E. coli BL21 (DE3) cod+, purified (HisTrap, Resource Q, Superdex 200)
B2: human Hsp90β K607I (natural protein)
chain: not shown
notes: as for B1
B3: human Hsp90β K607R (natural protein)
chain: not shown
notes: as for B1
B4: human Hsp90β K607E (natural protein)
chain: not shown
notes: as for B1

Target: the molecule itself
Assay: SEC; Hsp90 dimerization assay: dilution series on Superdex 200 increase 10/300 GL (Shimadzu HPLC), fluorescence detection, 25 °C, 40 mM Hepes pH 7.5, 150 mM KCl, 5 mM MgCl2, 2 mM DTT; human Hsp90β 2 nM to 4 µM, yeast Hsp90 16 nM to 2 µM; KD = KD(app) divided by the dilution factor (about 4); dimer to monomers
B1: binds. B2: binds. B3: binds. B4: binds.
